From the RNAGym collection of RNA variant scans (doi:10.7554/elife.80360)

B1: Twister Ribozyme (parent)
chain: AACACUGCCAAUGCCGGUCCCAAGCCCGGAUAAAAGUGGAGGGGGCGG

Variants of: B1
Test: self-cleavage, relative activity (ratio to wild type); higher = more cleavage; co-transcriptional
With AACACUGCCAAUGCCGGUCCCAAGCCCGGAUUAAAGUGGAGGGGGCGC the self-cleavage was 1.2.
AACACUGCCAAUGCCGGUCCCAAGCCCGGAUUAAAGUGGAGGGGGCGU gave a self-cleavage of 0.977.
For AACACUGCCAAUGCCGGUCCCAAGCCCGGAUGAAAGUGGAGGGUGCGG, the self-cleavage was 1.06.
AACACUGCCAAUGCCGGUCCCAAGCCCGGAUACAAGUGGAUGGGGCGG showed a self-cleavage of 0.265.
In the case of AACACUGCCAAUGCCGGUCCCAAGCCCGGAUACAAGUGCAGGGGGCGG, the self-cleavage is reported as 0.12.
In the case of AACACUGCCAAUGCCGGUCCCAAGCCCGGAUACAAGUGUAGGGGGCGG, the self-cleavage is reported as 0.21.
AACACUGCCAAUGCCGGUCCCAAGCCCGGAUACAAGUGGUGGGGGCGG showed a self-cleavage of 0.1.
Variant AACACUGCCAAUGCCGGUCCCAAGCCCGGAUACAAGUGGGGGGGGCGG has a self-cleavage of 0.182.
Variant AACACUGCCAAUGCCGGUCCCAAGCCCGGAUACAAGUGGCGGGGGCGG has a self-cleavage of 0.131.
In the case of AACACUGCCAAUGCCGGUCCCAAGCCCGGAUCAAAGUGGAGGUGGCGG, the self-cleavage is reported as 0.344.
AACACUGCCAAUGCCGGUCCCAAGCCCGGAGAAAAGUGGACGGGGCGG gave a self-cleavage of 0.278.
Variant AACACUGCCAAUGCCGGUCCCAAGCCCGGAGAAAAGUGGAUGGGGCGG has a self-cleavage of 0.763.
Variant AACACUGCCAAUGCCGGUCCCAAGCCCGGAUGAAAGUGGAGGGGGCUG has a self-cleavage of 0.893.
With AACACUGCCAAUGCCGGUCCCAAGCCCGGAUGAAAGUGGAGGGGGCAG the self-cleavage was 0.924.
AACACUGCCAAUGCCGGUCCCAAGCCCGGAUACUAGUGGAGGGGGCGG showed a self-cleavage of 0.969.
Variant AACACUGCCAAUGCCGGUCCCAAGCCCGGAUUAAAGUGGAUGGGGCGG has a self-cleavage of 0.659.
With AACACUGCCAAUGCCGGUCCCAAGCCCGGAUUAAAGUGGACGGGGCGG the self-cleavage was 0.284.
AACACUGCCAAUGCCGGUCCCAAGCCCGGAUUAAAGUGGCGGGGGCGG showed a self-cleavage of 0.204.
Variant AACACUGCCAAUGCCGGUCCCAAGCCCGGAUUAAAGUGGGGGGGGCGG has a self-cleavage of 0.108.
In the case of AACACUGCCAAUGCCGGUCCCAAGCCCGGAUUGAAGUGGAGGGGGCGG, the self-cleavage is reported as 0.891.
Variant AACACUGCCAAUGCCGGUCCCAAGCCCGGAUGAAAGGGGAGGGGGCGG has a self-cleavage of 0.716.
In the case of AACACUGCCAAUGCCGGUCCCAAGCCCGGAUUAAAGUGGAGGGGGCAG, the self-cleavage is reported as 0.883.
AACACUGCCAAUGCCGGUCCCAAGCCCGGAUUAAAGUGGAGGGGGCCG gave a self-cleavage of 0.583.
In the case of AACACUGCCAAUGCCGGUCCCAAGCCCGGAUUAAAGUGGAGGGGGCUG, the self-cleavage is reported as 0.83.
With AACACUGCCAAUGCCGGUCCCAAGCCCGGAUUAAUGUGGAGGGGGCGG the self-cleavage was 1.13.
AACACUGCCAAUGCCGGUCCCAAGCCCGGAGAAAAGUGCAGGGGGCGG showed a self-cleavage of 0.144.
With AACACUGCCAAUGCCGGUCCCAAGCCCGGAUUAAAGUGGAGGGCGCGG the self-cleavage was 0.934.
AACACUGCCAAUGCCGGUCCCAAGCCCGGAUUAAAGUGCAGGGGGCGG showed a self-cleavage of 0.144.
With AACACUGCCAAUGCCGGUCCCAAGCCCGGAUUAAAGUGUAGGGGGCGG the self-cleavage was 0.158.
Variant AACACUGCCAAUGCCGGUCCCAAGCCCGGAUUAAAGUGAAGGGGGCGG has a self-cleavage of 0.596.
With AACACUGCCAAUGCCGGUCCCAAGCCCGGAUUAAAGUGGAGGGGUCGG the self-cleavage was 0.819.
With AACACUGCCAAUGCCGGUCCCAAGCCCGGAUACAAGUGGAGAGGGCGG the self-cleavage was 0.177.
AACACUGCCAAUGCCGGUCCCAAGCCCGGAUACAAGUGGAGUGGGCGG gave a self-cleavage of 0.188.
Variant AACACUGCCAAUGCCGGUCCCAAGCCCGGAUACAAGUGGAGCGGGCGG has a self-cleavage of 0.19.
AACACUGCCAAUGCCGGUCCCAAGCCCGGAGAAAAGUGGAGGAGGCGG gave a self-cleavage of 0.324.
Variant AACACUGCCAAUGCCGGUCCCAAGCCCGGAUACAAGUAGAGGGGGCGG has a self-cleavage of 0.867.
Work on AACACUGCCAAUGCCGGUCCCAAGCCCGGAUACAAGUUGAGGGGGCGG yielded a self-cleavage of 0.72.
Variant AACACUGCCAAUGCCGGUCCCAAGCCCGGAUUAUAGUGGAGGGGGCGG has a self-cleavage of 0.89.
In the case of AACACUGCCAAUGCCGGUCCCAAGCCCGGAUUAGAGUGGAGGGGGCGG, the self-cleavage is reported as 0.869.
AACACUGCCAAUGCCGGUCCCAAGCCCGGAUGCAAGUGGAGGGGGCGG gave a self-cleavage of 0.833.
AACACUGCCAAUGCCGGUCCCAAGCCCGGAUGUAAGUGGAGGGGGCGG gave a self-cleavage of 0.914.
Work on AACACUGCCAAUGCCGGUCCCAAGCCCGGAGAAAAGUGGAGGGUGCGG yielded a self-cleavage of 0.882.
AACACUGCCAAUGCCGGUCCCAAGCCCGGAUGAAAGUGGAGGGGGCGA gave a self-cleavage of 0.925.
Variant AACACUGCCAAUGCCGGUCCCAAGCCCGGAUGAAAGUGGAGGGGGCGC has a self-cleavage of 0.976.
AACACUGCCAAUGCCGGUCCCAAGCCCGGAUGAAAGUGGAGGGGGCGU showed a self-cleavage of 1.1.
AACACUGCCAAUGCCGGUCCCAAGCCCGGAUGAAAGUGCAGGGGGCGG showed a self-cleavage of 0.155.
AACACUGCCAAUGCCGGUCCCAAGCCCGGAUGAAAGUGUAGGGGGCGG showed a self-cleavage of 0.158.
For AACACUGCCAAUGCCGGUCCCAAGCCCGGAUGAAAGUGAAGGGGGCGG, the self-cleavage was 0.48.
For AACACUGCCAAUGCCGGUCCCAAGCCCGGAUCAAGGUGGAGGGGGCGG, the self-cleavage was 0.8.
In the case of AACACUGCCAAUGCCGGUCCCAAGCCCGGAUUAAAGCGGAGGGGGCGG, the self-cleavage is reported as 0.669.
With AACACUGCCAAUGCCGGUCCCAAGCCCGGAUUAAAGGGGAGGGGGCGG the self-cleavage was 0.737.
AACACUGCCAAUGCCGGUCCCAAGCCCGGAUUAAAGAGGAGGGGGCGG gave a self-cleavage of 0.74.
In the case of AACACUGCCAAUGCCGGUCCCAAGCCCGGAUGAAAGUUGAGGGGGCGG, the self-cleavage is reported as 0.846.
With AACACUGCCAAUGCCGGUCCCAAGCCCGGAUACAAGUGGAGGGAGCGG the self-cleavage was 0.832.
